One molecule from paper PMC7357788, “Overlapping functions and protein-protein interactions of LRR-extensins in Arabidopsis” (PLoS Genetics, 2020) can be followed below.

The experiment relates to FER^ECD. Put plainly: Yeast-two-hybrid LRX LRR domain-FER^ECD. To be noted: Y2H, yeast strain PJ69-4A, LRR domains, -Trp, Leu, His, Ade drop-out medium containing 5 mM 3-AT. Format: binding, Arabidopsis thaliana. The text has this: The BD-LRX4 and AD-FER^ECD constructs for the Yeast-two-hybrid experiment were cloned as previously described, where NtermFER equals AD-FER^ECD and LRR4 equals BD-LRX4. For the BD-LRX1/2/3/5 constructs, the coding sequence of the LRR domain of the LRXs was amplified using primers (S3 Table) to introduce a BamHI and a XhoI site at the 5’ and 3’ end of the PCR fragments, respectively. These were cloned into pJET1.2 (Thermo Scientific) and correct clones were cut with BamHI and XhoI and ligated into pGBKT7 cut with BamHI and SalI. The AD-RALF1 construct was cloned into pJET1.2 (Thermo Scientific) by amplification of the coding sequence with the primers y2h_RALF1_F and y2h_RALF1_R. A correct clone was cut with EcoRI and XmaI and ligated into pGADT7 cut with EcoRI and XmaI.
Transformation of the yeast strain PJ69-4A [63] was done following standard procedures and quadruple drop-out medium lacking Leu, Trp, His, and Ade were used to screen for positive interactions after 4 days incubation at 30°C. Three different colonies containing both vectors were mixed and plated in triplicates on quadruple drop-out medium.
Supplementary file pgen.1008847.s001.pdf: S1 Fig Interaction of LRXs and FER in yeast-two-hybrid assays. […]

B1: LRX2: LRR domain of LRX2 (BD-LRX2), gene At1g62440 (protein)
chain: MLLFPSTSLRLFFFLFLLFSSCFLQIRGDDDDDDISDDNIKVDPSLKFENPSLRQAYIALQSWKQAIFSDPFNFTANWNGSDVCSYNGIFCAPSPSSPKTRVVAGIDLNHADMAGYLPRELGLLTDLALFHLNSNRFCGEVPLTFKHMKLLFELDLSNNRFVGKFPNVVLSLPSLKFLDLRYNEFEGSIPSKLFDKELDAIFLNHNRFMFGIPENMGNSPVSALVLADNDLGGCIPGSIGLMGKTLNEIILSNDNLTGCLPPQIGNLKNVTVFDISFNRLSGPLPSSIGNMKSLEQLNVANNRFTGVIPSSICQLSNLENFTYSSNFFTGDAPRCVALLGDNVVVNGSMNCIDGKEDQRSSKECSSPASRSVDCSKFGCNNFFSPPPPSFKMSPTVRVLPPPPPSSKMSPTFRATPPPPSSKMSPSFRATPPPPSSKMSPSFRATPPPPSSKMSPSVKAYPPPPPPPEYEPSPPPPSSEMSPSVRAYPPPPPLSPPPPSPPPPYIYSSPPPPSPSPPPPYIYSSPPPVVNCPPTTQSPPPPKYEQTPSPREYYPSPSPPYYQYTSSPPPPTYYATQSPPPPPPPTYYAVQSPPPPPPVYYPPVTASPPPPPVYYTPVIQSPPPPPVYYSPVTQSPPPPPPVYYPPVTQSPPPSPVYYPPVTQSPPPPPVYYLPVTQSPPPPSPVYYPPVAKSPPPPSPVYYPPVTQSPPPPSTPVEYHPPASPNQSPPPEYQSPPPKGCNDSPSNDHHYQTPTPPSLPPPYYEDTPLPPIRGVSYASPPPPSIPYY
modifications: left off: Gal4 DNA-binding domain (from the vector pGBKT7), end not stated, kept
notes: LRR domain of LRX2 (BD-LRX2), gene At1g62440
Consider B1, for which the “interaction with FER^ECD” value is “showed interaction with FER^ECD”.
